In US20080098490A1 one finds background binding in the absence of antibody and IC50 (read off the curve) data, which are given here for three substances.

In experiment [1] the target is IL-8 receptors on human neutrophils. Kind of experiment: 125I-IL-8 binding to human neutrophils, no antibody.
For experiment [2], the target named is TNF-α receptors on U937 cells. The experiment in a line: 125I-TNF-α binding to U937 cells, no antibody.
Experiment [3] deals with EGFR expressed on A431 cells or SW948 cells (human) (UniProt P00533). Kind of experiment: inhibition of [125I]EGF binding to A431 cells (receptor binding assay, % specific bound); blocked ligand: EGF.

In experiment [1], “human IL-8 (from UniProt P10145 28-99) (ligand)” displayed a background binding in the absence of antibody of 2660 cpm.

Substance “human tumor necrosis factor-α (from UniProt P01375 77-233) (ligand)” came in with a background binding in the absence of antibody in experiment [2] of 4010 cpm.

Consider “mouse anti-human EGFR antibody 225 (Calbiochem)”, for which the IC50 (read off the curve) in experiment [3] was 20 nM.
